Results from publication PMC4534038, “Plasmodium falciparum Hop (PfHop) Interacts with the Hsp70 Chaperone in a Nucleotide-Dependent Fashion and Exhibits Ligand Selectivity” (PLoS ONE, 2015).

B1: Plasmodium falciparum Hsp70-Hsp90 organising protein (PfHop), Q8ILC1 1-564 (natural protein)
chain: MVNKEEAQRLKELGNKCFQEGKYEEAVKYFSDAITNDPLDHVLYSNLSGAFASLGRFYEALESANKCISIKKDWPKGYIRKGCAEHGLRQLSNAEKTYLEGLKIDPNNKSLQDALSKVRNENMLENAQLIAHLNNIIENDPQLKSYKEENSNYPHELLNTIKSINSNPMNIRIILSTCHPKISEGVEKFFGFKFTGEGNDAEERQRQQREEEERRKKKEEEERKKKEEEEMKKQNRTPEQIQGDEHKLKGNEFYKQKKFDEALKEYEEAIQINPNDIMYHYNKAAVHIEMKNYDKAVETCLYAIENRYNFKAEFIQVAKLYNRLAISYINMKKYDLAIEAYRKSLVEDNNRATRNALKELERRKEKEEKEAYIDPDKAEEHKNKGNEYFKNNDFPNAKKEYDEAIRRNPNDAKLYSNRAAALTKLIEYPSALEDVMKAIELDPTFVKAYSRKGNLHFFMKDYYKALQAYNKGLELDPNNKECLEGYQRCAFKIDEMSKSEKVDEEQFKKSMADPEIQQIISDPQFQIILQKLNENPNSISEYIKDPKIFNGLQKLIAAGILKVR
B2: Plasmodium falciparum Hsp70-Hsp90 organising protein (PfHop), recombinant, his-tagged (natural protein, UniProt Q8ILC1 1-564, looked up)
chain: B1 chain

How the values were obtained:
[1] = target: T1, Plasmodium falciparum Hsp70-Hsp90 organising protein (PfHop) (Plasmodium falciparum), Q8ILC1; experiment: SPR; ProteOn XPR36, GLC chip; PfHop immobilised by amine coupling, PfHop as analyte (125-2000 nM); self-association, step not told; 25 C; PBS-Tween with 20 mM EDTA, pH 7.4; with 5 mM ADP; conditions: remark: other sources report otherwise
T1 chain: B1 chain

[2] = target: T1, Plasmodium falciparum Hsp70-Hsp90 …; experiment: SPR; ProteOn XPR36, GLC chip; PfHop immobilised by amine coupling, PfHop as analyte (125-2000 nM); self-association, step not told; 25 C; PBS-Tween with 20 mM EDTA, pH 7.4; with 5 mM ATP; conditions: remark: other sources report otherwise
[3] = target: T1, Plasmodium falciparum Hsp70-Hsp90 …; experiment: SPR; ProteOn XPR36, GLC chip; PfHop immobilised by amine coupling, PfHop as analyte (125-2000 nM); self-association, step not told; 25 C; PBS-Tween with 20 mM EDTA, pH 7.4; no nucleotide; conditions: remark: other sources report otherwise
[4] = target: Plasmodium falciparum Hsp70 (PfHsp70-1), full length, recombinant, his-tagged (Plasmodium falciparum, UniProt Q8IB24 1-677); experiment: far-Western, overlay or dot blot; PfHsp70-1 (25, 37.5, 50 μg/mL) resolved by SDS-PAGE, blotted, denatured and renatured with urea (8 M-0 M); overlaid with PfHop in protein-binding buffer (100 mM NaCl, 20 mM Tris pH 7.6, 0.5 mM EDTA, 10% glycerol, 0.1% Tween-20, 2% skim milk, 1 mM DTT) overnight at 4°C; no nucleotide, 5 μM ADP or 5 μM ATP; detected with α-PfHop; conditions: both partners purified

| Binder | Kd [1] [nM] | koff [1] [s⁻¹] | kon [1] [M⁻¹ s⁻¹] | Kd [2] [nM] | koff [2] [s⁻¹] | kon [2] [M⁻¹ s⁻¹] | Kd [3] [nM] | koff [3] [s⁻¹] | kon [3] [M⁻¹ s⁻¹] | binding result [4] |
| --- | --- | --- | --- | --- | --- | --- | --- | --- | --- | --- |
| B1 | 7.85 | 0.000464 | 59100 | 5.18 | 0.000329 | 63500 | 1.57 | 0.000359 | 228000 | – |
| B2 | – | – | – | – | – | – | – | – | – | binds |
